Experimental data from US20240392004A1 (IMMUNOWAKE, published 2024).
Numbering of substitutions follows the chain as printed. Names and notes keep the numbering of the source. Each block holds one binder with its values, some of them ahead of it.

Biological target: human PD-1 on cells (HEK-PD-1 reporter cells; activated PBMC) (human, UniProt Q15116 25-288)
Assay: cell-based or functional assay

Chain of human PD-1 on cells (HEK-PD-1 reporter cells; activated PBMC) (Q15116 25-288): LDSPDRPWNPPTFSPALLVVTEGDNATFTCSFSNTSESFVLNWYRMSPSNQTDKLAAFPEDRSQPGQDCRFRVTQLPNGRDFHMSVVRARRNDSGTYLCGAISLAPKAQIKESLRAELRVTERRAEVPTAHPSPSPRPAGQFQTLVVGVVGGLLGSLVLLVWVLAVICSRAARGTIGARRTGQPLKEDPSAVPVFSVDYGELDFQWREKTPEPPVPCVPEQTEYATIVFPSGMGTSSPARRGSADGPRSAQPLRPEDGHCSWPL

Biological activity of IL-12, HEK-PD-1-IL-12 reporter assay, % of rIL-12: 189%
B1: PD-L1(I54Q/Y56F/E58M/R113T/M115L/S117A/G119K)-Fc/IL-12(E59A/F60A) (IL-12 at C-terminus of Fc) (Fc fusion)
chain 1: FTVTVPKDLYVVEYGSNMTIECKFPVEKQLDLAALQVFWMMEDKNIIQFVHGEEDLKVQHSSYRQRARLLKDQLSLGNAALQITDVKLQDAGVYTCLIAYKGADYKRITVKVNAPYNKINQRILVVDPVTSEHELTCQAEGYPKAEVIWTSSDHQVLSGKTTTTNSKREEKLFNVTSTLRINTTTNEIFYCTFRRLDPEENHTAELVIPELPLAHPPNERGSGDKTHTCPPCPAPEKKGGPSVFLFPPKPKDTLMISRTPEVTCVVVDVSHEDPEVKFNWYVDGVEVHNAKTKPREEQYNSTYRVVSVLTVLHQDWLNGKEYKCKVSNKALPAPIEKTISKAKGQPREPQVYVLPPSREEMTKNQVSLLCLVKGFYPSDIAVEWESNGQPENRYMTWPPVLDSDGSFFLYSKLTVDKSRWQQGNVFSCSVMHEALHNHYTQKSLSLSPGK
chain 2: FTVTVPKDLYVVEYGSNMTIECKFPVEKQLDLAALQVFWMMEDKNIIQFVHGEEDLKVQHSSYRQRARLLKDQLSLGNAALQITDVKLQDAGVYTCLIAYKGADYKRITVKVNAPYNKINQRILVVDPVTSEHELTCQAEGYPKAEVIWTSSDHQVLSGKTTTTNSKREEKLFNVTSTLRINTTTNEIFYCTFRRLDPEENHTAELVIPELPLAHPPNERGSGDKTHTCPPCPAPEDEGGPSVFLFPPKPKDTLMISRTPEVTCVVVDVSHEDPEVKFNWYVDGVEVHNAKTKPREEQYNSTYRVVSVLTVLHQDWLNGKEYKCKVSNKALPAPIEKTISKAKGQPREPQVYVYPPSREEMTKNQVSLTCLVKGFYPSDIAVEWESNGQPENNYKTTPPVLDEDGSFALVSKLTVDKSRWQQGNVFSCSVMHEALHNHYTQKSLSLSPGKGGGGSGGGGSGGGGSIWELKKDVYVVELDWYPDAPGEMVVLTCDTPEEDGITWTLDQSSEVLGSGKTLTIQVKAAGDAGQYTCHKGGEVLSHSLLLLHKKEDGIWSTDILKDQKEPKNKTFLRCEAKNYSGRFTCWWLTTISTDLTFSVKSSRGSSDPQGVTCGAATLSAERVRGDNKEYEYSVECQEDSACPAAEESLPIEVMVDAVHKLKYENYTSSFFIRDIIKPDPPKNLQLKPLKNSRQVEVSWEYPDTWSTPHSYFSLTFCVQVQGKSKREKKDRVFTDKTSATVICRKNASISVRAQDRYYSSSWSEWASVPCSGGGGSGGGGSGGGGSGGGGSGRNLPVATPDPGMFPCLHHSQNLLRAVSNMLQKARQTLEFYPCTSEEIDHEDITKDKTSTVEACLPLELTKNESCLNSRETSFITNGSCLASRKTSFMMALCLSSIYEDLKMYQVEFKTMNAKLLMDPKRQIFLDQNMLAVIDELMQALNFNSETVPQKSSLEEPDFYKTKIKLCILLHAFRIRAVTIDRVMSYLNAS

Biological activity of IL-12, HEK-PD-1-IL-12 reporter assay, % of rIL-12: 234%
B2: PD-L1(I54Q/Y56F/E58M/R113T/M115L/S117A/G119K)-Fc/IL-12(F60A) (IL-12 at C-terminus of Fc) (Fc fusion)
chain 1: B1 chain 1
chain 2: B1 chain 2 with A524E
